First the molecules themselves.
T1: recombinant human TREM2-DAP12 fusion protein on cells (human) (UniProt Q9NZC2)
T1 sequence: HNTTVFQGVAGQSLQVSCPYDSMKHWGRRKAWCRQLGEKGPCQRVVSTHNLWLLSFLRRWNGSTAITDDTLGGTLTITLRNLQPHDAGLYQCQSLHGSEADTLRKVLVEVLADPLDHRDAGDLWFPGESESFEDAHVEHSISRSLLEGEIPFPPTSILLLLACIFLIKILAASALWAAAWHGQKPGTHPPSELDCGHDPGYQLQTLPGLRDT

B1: Ab52 (antibody, human IgG1, V domains shown)
VH: QVQLVQSGAEVKKPGASVKVSCKASGYTFTSYYIHWVRQAPGQGLEWMGIINPSGGSTSYAQKFQGRVTMTRDTSTSTVYMELSSLRSEDTAVYYCAREADDSSGYPLGLDVWGQGTMVTVSS
VL: EIVMTQSPATLSVSPGERATLSCRASQSVSSNLAWYQQKPGQAPRLLIYGASTRATGIPARFSGSGSGTEFTLTISSLQSEDFAVYYCQQVNSLPPTFGGGTKVEIK
B2: Ab45 (antibody, human IgG1, V domains shown)
VH: QVQLVQSGAEVKKPGASVKVSCKASGYTFTSYYMHWVRQAPGQGLEWMGIINPSGGSTSYAQKFQGRVTMTRDTSTSTVYMELSSLRSEDTAVYYCARGPGYTTALDYYYMDVWGKGTTVTVSS
VL: EIVMTQSPATLSVSPGERATLSCRASQSVSSNLAWYQQKPGQAPRLLIYGASTRATGIPARFSGSGSGTEFTLTISSLQSEDFAVYYCQQLDDWFTFGGGTKVEIK
B3: Ab15 (antibody, human IgG1, V domains shown)
VH: QVQLQESGPGLVKPSQTLSLTCTVSGGSISSGGYYWSWIRQHPGKGLEWIGNIYYSGSTVYNPSLKSRVTISVDTSKNQFSLKLSSVTAADTAVYYCARGLYGYGVLDVWGQGTMVTVSS
VL: DIQMTQSPSSLSASVGDRVTITCQASQDISNYLNWYQQKPGKAPKLLIYDASNLETGVPSRFSGSGSGTDFTFTISSLQPEDIATYYCQQFDTYPTFGGGTKVEIK
B4: Ab73 (antibody, human IgG1, V domains shown)
VH: EVQLVQSGAEVKKPGESLKISCKGSGYSFTSYWIGWVRQMPGKGLEWMGIIYPGDSDTTYSPSFQGQVTISADKSISTAYLQWSSLKASDTAMYYCARAKMLDDGYAFDIWGQGTMVTVSS
VL: EIVMTQSPATLSVSPGERATLSCRASQSVSSNLAWYQQKPGQAPRLLIYGASTRATGIPARFSGSGSGTEFTLTISSLQSEDFAVYYCQQDDNYPYTFGGGTKVEIK
B5: Ab64 (antibody, human IgG1, V domains shown)
VH: EVQLVQSGAEVKKPGESLKISCKGSGYSFTSYWIGWVRQMPGKGLEWMGIIYPGDSDTRYSPSFQGQVTISADKSISTAYLQWSSLKASDTAMYYCARLGRWSSGSTAFDIWGQGTMVTVSS
VL: EIVMTQSPATLSVSPGERATLSCRASQSVSSNLAWYQQKPGQAPRLLIYGASTRATGIPARFSGSGSGTEFTLTISSLQSEDFAVYYCQQDDDGYTFGGGTKVEIK
B6: Ab72 (antibody, human IgG1, V domains shown)
VH: QVQLQESGPGLVKPSETLSLTCTVSGGSISSYYWSWIRQPPGKGLEWIGSIYYSGSTNYNPSLKSRVTISVDTSKNQFSLKLSSVTAADTAVYYCARSGTETLFDYWGQGTLVTVSS
VL: DIQMTQSPSSLSASVGDRVTITCQASQDITNYLNWYQQKPGKAPKLLIYDASNLETGVPSRFSGSRSGTDFTFTISSLQPEDIATYYCQQDVNYPPTFGGGTKVEIK
B7: Ab51 (antibody, human IgG1, V domains shown)
VH: QVQLVQSGAEVKKPGASVKVSCKASGYTFTSYYMHWVRQAPGQGLEWMGIINPSGGSTSYAQKFQGRVTMTRDTSTSTVYMELSSLRSEDTAVYYCARGVGGQDYYYMDVWGKGTTVTVSS
VL: DIQMTQSPSSLSASVGDRVTITCRASQSISSYLNWYQQKPGKAPKLLIYAASSLQSGVPSRFSGSGSGTDFTLTISSLQPEDFATYYCQQFDDVFTFGGGTKVEIK
B8: Ab12 (antibody, human IgG1, V domains shown)
VH: EVQLVQSGAEVKKPGESLKISCKGSGYSFTSYWIGWVRQMPGKGLEWMGIIYPGDSDTRYSPSFQGQVTISADKSISTAYLQWSSLKASDTAMYYCARLGHYSGTVSSYGMDVWGQGTTVTVSS
VL: DIQMTQSPSSLSASVGDRVTITCRASQSISSYLNWYQQKPGKAPKLLIYAASSLQSGVPSRFSGSGSGTDFTLTISSLQPEDFATYYCQQEYAVPYTFGGGTKVEIK
B9: Ab54 (antibody, human IgG1, V domains shown)
VH: QVQLVQSGAEVKKPGASVKVSCKASGYTFTSYYMHWVRQAPGQGLEWMGIINPSGGSTSYAQKFQGRVTMTRDTSTSTVYMELSSLRSEDTAVYYCARGPGYTTALDYYYMDVWGKGTTVTVSS
VL: DIQMTQSPSSLSASVGDRVTITCRASQSINSYLNWYQQKPGKAPKLLIYAASSLQSGVPSRFSGSGSGTDFTLTISSLQPEDFATYYCQQSDDDPFTFGGGTKVEIK
B10: Ab63 (antibody, human IgG1, V domains shown)
VH: QVQLVQSGAEVKKPGASVKVSCKASGYTFTSYGISWVRQAPGQGLEWMGWISTYNGNTNYAQKLQGRVTMTTDTSTSTAYMELRSLRSDDTAVYYCARGSGSGYDSWYDWGQGTLVTVSS
VL: DIQMTQSPSSVSASVGDRVTITCRASQGIDSWLAWYQQKPGKAPKLLIYAASSLQSGVPSRFSGSGSGTDFTLTISSLQPEDFATYYCQQAYSLPPTFGGGTKVEIK
B11: Ab83 (antibody, human IgG1, V domains shown)
VH: QVQLQQWGAGLLKPSETLSLTCAVYGGSFSGYYWSWIRQPPGKGLEWIGEIDHSGSTKYNPSLKSRVTISVDTSKNQFSLKLSSVTAADTAVYYCARVGVVVGRPGYSAFDIWGQGTMVTVSS
VL: DIQMTQSPSSVSASVGDRVTITCRASQGISSWLAWYQQKPGKAPKLLIYAASSLQSGVPSRFSGSGSGTDFTLTISSLQPEDFATYYCQQRNSLPLTFGGGTKVEIK
B12: Ab8 (antibody, human IgG1, V domains shown)
VH: QLQLQESGPGLVKPSETLSLTCTVSGGSISSSSYYWGWIRQPPGKGLEWIGSISYSGSTYYNPSLKSRVTISVDTSKNQFSLKLSSVTAADTAVYYCARGPYRLLLGMDVWGQGTTVTVSS
VL: DIQMTQSPSSLSASVGDRVTITCRASQSISSYLNWYQQKPGKAPKLLIYGASSLQSGVPSRFSGSGSGTDFTLTISSLQPEDFATYYCQQIDDTPITFGGGTKVEIK
B13: Ab82 (antibody, human IgG1, V domains shown)
VH: QVQLQESGPGLVKPSQTLSLTCTVSGGSISSGGYYWSWIRQHPGKGLEWIGYIYYSGSTVYNPSLKSRVTISVDTSKNQFSLKLSSVTAADTAVYYCARVSSSWYKAWGQGTMVTVSS
VL: DIQMTQSPSSVSASVGDRVTITCRASQGISSWLAWYQQKPGKAPKLLIYAASSLQSGVPSRFSGSGSGTDFTLTISSLQPEDFATYYCQQASTFPITFGGGTKVEIK

The target in the first assay is T1, recombinant human TREM2-DAP12 fusion protein on cells (human). The experiment in a line: FACS, 293 cells. (In flow cytometry, cells or beads pass a laser one at a time.)
For the molecule B1, the MFI came to 1410 MFI.

Take B2: the MFI was found to be 2060 MFI.

The target is the same in a further assay. The experiment in a line: FACS, hTrem2 cells.
In the case of B3, the MFI was found to be 1610 MFI.

For the molecule B1, the MFI was determined as 1410 MFI.

Turning to B4, the MFI was found to be 1310 MFI.

Regarding B5, the MFI turned out to be 1460 MFI. As to B6, the MFI worked out at 1500 MFI. Consider B7, for which the MFI was 1930 MFI. Same read-out and setting: the result for B8 reads 1930 MFI.

In the case of B9, the MFI turned out to be 1930 MFI. On to B10, for which the MFI is 1350 MFI. Turning to B11, the MFI was determined as 684 MFI.

With B12, the MFI turned out to be 1620 MFI. B13: the MFI was found to be 371 MFI.
